The supplement of paper PMC11246515
± gives the standard deviation of the averaged measurements.

Experiment: total protein half-life in vivo (active degradation + dilution); higher = more stable protein
[1] = E. coli NCM3722 delta-clpP delta-lon delta-hslV, growth: N-lim chemostat, doubling time 6 h
[2] = wild type E. coli NCM3722, growth: C-lim chemostat, doubling time 3 h
[3] = wild type E. coli NCM3722, growth: C-lim chemostat, doubling time 6 h
[4] = wild type E. coli NCM3722, growth: C-lim chemostat, doubling time 12 h
[5] = wild type E. coli NCM3722, growth: N-lim chemostat, doubling time 6 h
[6] = wild type E. coli NCM3722, growth: N-lim chemostat, doubling time 12 h
[7] = wild type E. coli NCM3722, growth: P-lim chemostat, doubling time 12 h
[8] = E. coli NCM3722 delta-clpP, growth: N-lim chemostat, doubling time 6 h
[9] = E. coli NCM3722 delta-smpB, growth: N-lim chemostat, doubling time 6 h
[10] = wild type E. coli NCM3722, growth: P-lim chemostat, doubling time 6 h
[11] = E. coli NCM3722 delta-lon, growth: N-lim chemostat, doubling time 6 h
[12] = E. coli NCM3722 delta-hslV, growth: N-lim chemostat, doubling time 6 h

## MKLNATYIKIRDKWWGLPLFLPSLILPIFAHINTFAHISSGEVFLFYLPLALMISMMMFFSWAALPGIALGIFVRKYAELGFYETLSLTANFIIIIILCWGGYRVFTPRRNNVSHGDTRLISQRIFWQIVFPATLFLILFQFAAFVGLLASRENLVGVMPFNLGTLINYQALLVGNLIGVPLCYFIIRVVRNPFYLRSYYSQLKQQVDAKVTKKEFALWLLALGALLLLLCMPLNEKSTIFSTNYTLSLLLPLMMWGAMRYGYKLISLLWAVVLMISIHSYQNYIPIYPGYTTQLTITSSSYLVFSFIVNYMAVLATRQRAVVRRIQRLAYVDPVVHLPNVRALNRALRDAPWSALCYLRIPGMEMLVKNYGIMLRIQYKQKLSHWLSPLLEPGEDVYQLSGNDLALRLNTESHQERITALDSHLKQFRFFWDGMPMQPQIGVSYCYVRSPVNHIYLLLGELNTVAELSIVTNAPENMQRRGAMYLQRELKDKVAMMNRLQQALEHNHFFLMAQPITGMRGDVYHEILLRMKGENDELISPDSFLPVAHEFGLSSSIDMWVIEHTLQFMAENRAKMPAHRFAINLSPTSVCQARFPVEVSQLLAKYQIEAWQLIFEVTESNALTNVKQAQITLQHLQELGCQIAIDDFGTGYASYARLKNVNADLLKIDGSFIRNIVSNSLDYQIVASICHLARMKKMLVVAEYVENEEIREAVLSLGIDYMQGYLIGKPQPLIDTLNEIEPIRESA
[1]
  total protein half-life in vivo: 5.56 h
[2]
  total protein half-life in vivo: 2.98 h
[3]
  total protein half-life in vivo: 5.24 h
[4]
  total protein half-life in vivo: 9.12 h
[5]
  total protein half-life in vivo: 4.99 h
[6]
  total protein half-life in vivo: 6.22 h
[7]
  total protein half-life in vivo: 11.5 h

## MKLRLSALALGTTLLVGCASSGTDQQGRSDPLEGFNRTMYNFNFNVLDPYIVRPVAVAWRDYVPQPARNGLSNFTGNLEEPAVMVNYFLQGDPYQGMVHFTRFFLNTILGMGGFIDVAGMANPKLQRTEPHRFGSTLGHYGVGYGPYVQLPFYGSFTLRDDGGDMADGFYPVLSWLTWPMSVGKWTLEGIETRAQLLDSDGLLRQSSDPYIMVREAYFQRHDFIANGGELKPQENPNAQAIQDDLKDIDSE
[1]
  total protein half-life in vivo: 6.54 ± 0.28 h
[8]
  total protein half-life in vivo: 6.05 ± 0.062 h
[9]
  total protein half-life in vivo: 5.99 ± 0.31 h
[2]
  total protein half-life in vivo: 3.153 ± 0.018 h
[3]
  total protein half-life in vivo: 6.61 ± 1.3 h
[4]
  total protein half-life in vivo: 13.9 ± 0.49 h
[5]
  total protein half-life in vivo: 6.37 ± 0.039 h
[6]
  total protein half-life in vivo: 12.59 ± 0.014 h
[10]
  total protein half-life in vivo: 5.98 ± 0.64 h
[7]
  total protein half-life in vivo: 13.4 ± 0.97 h

## MKLSTCCAALLLALASPAVLAAPGSCERIQSDISQRIINNGVPESSFTLSIVPNDQVDQPDSQVVGHCANDTHKILYTRTTSGNVSAPAQSSQDGAPAEPQ
[8]
  total protein half-life in vivo: 6.13 h
[11]
  total protein half-life in vivo: 6.79 h
[9]
  total protein half-life in vivo: 4.61 h
[2]
  total protein half-life in vivo: 3.25 h
[3]
  total protein half-life in vivo: 6.33 h
[5]
  total protein half-life in vivo: 5.52 h
[6]
  total protein half-life in vivo: 11.6 ± 1.9 h
[10]
  total protein half-life in vivo: 5.94 ± 0.1 h
[7]
  total protein half-life in vivo: > 16 h

## MKLVTVIIKPFKLEDVREALSSIGIQGLTVTEVKGFGRQKGHAELYRGAEYSVNFLPKVKIDVAIADDQLDEVIDIVSKAAYTGKIGDGKIFVAELQRVIRIRTGEADEAAL [P0AC55]
[8]
  total protein half-life in vivo: 5.2 ± 0.45 h
[12]
  total protein half-life in vivo: 5.45 ± 0.14 h
[11]
  total protein half-life in vivo: 5.044 ± 0.034 h
[9]
  total protein half-life in vivo: 4.83 ± 0.068 h
[2]
  total protein half-life in vivo: > 4 h
[3]
  total protein half-life in vivo: 7.02 h
[5]
  total protein half-life in vivo: 5.43 ± 0.42 h
[6]
  total protein half-life in vivo: 8.82 ± 0.72 h
[7]
  total protein half-life in vivo: 13.6 ± 2.6 h

## MKLYIYDHCPYCLKARMIFGLKNIPVELHVLLNDDAETPTRMVGQKQVPILQKDDSRYMPESMDIVHYVDKLDGKPLLTGKRSPAIEEWLRKVNGYANKLLLPRFAKSAFDEFSTPAARKYFVDKKEASAGNFADLLAHSDGLIKNISDDLRALDKLIVKPNAVNGELSEDDIQLFPLLRNLTLVAGINWPSRVADYRDNMAKQTQINLLSSMAI [P0AC59]
[8]
  total protein half-life in vivo: 5.06 ± 0.73 h
[12]
  total protein half-life in vivo: 5.49 ± 0.35 h
[11]
  total protein half-life in vivo: 5.77 ± 0.24 h
[9]
  total protein half-life in vivo: 5.01 ± 0.41 h
[3]
  total protein half-life in vivo: 5.57 ± 0.23 h
[4]
  total protein half-life in vivo: 11.7 ± 1.8 h
[5]
  total protein half-life in vivo: 5.02 ± 0.15 h
[6]
  total protein half-life in vivo: 9.43 ± 0.3 h
[10]
  total protein half-life in vivo: 5.33 ± 0.55 h
[7]
  total protein half-life in vivo: 11.9 ± 0.21 h

## MKLYNLKDHNEQVSFAQAVTQGLGKNQGLFFPHDLPEFSLTEIDEMLKLDFVTRSAKILSAFIGDEIPQEILEERVRAAFAFPAPVANVESDVGCLELFHGPTLAFKDFGGRFMAQMLTHIAGDKPVTILTATSGDTGAAVAHAFYGLPNVKVVILYPRGKISPLQEKLFCTLGGNIETVAIDGDFDACQALVKQAFDDEELKVALGLNSANSINISRLLAQICYYFEAVAQLPQETRNQLVVSVPSGNFGDLTAGLLAKSLGLPVKRFIAATNVNDTVPRFLHDGQWSPKATQATLSNAMDVSQPNNWPRVEELFRRKIWQLKELGYAAVDDETTQQTMRELKELGYTSEPHAAVAYRALRDQLNPGEYGLFLGTAHPAKFKESVEAILGETLDLPKELAERADLPLLSHNLPADFAALRKLMMNHQ
[1]
  total protein half-life in vivo: 5.07 ± 0.61 h
[8]
  total protein half-life in vivo: 4.78 ± 0.058 h
[12]
  total protein half-life in vivo: 5.09 ± 0.18 h
[11]
  total protein half-life in vivo: 5.28 ± 0.25 h
[9]
  total protein half-life in vivo: 4.57 ± 0.11 h
[2]
  total protein half-life in vivo: 3.25 ± 0.27 h
[3]
  total protein half-life in vivo: 6.01 ± 0.15 h
[4]
  total protein half-life in vivo: 11.9 ± 0.91 h
[5]
  total protein half-life in vivo: 4.989 ± 0.048 h
[6]
  total protein half-life in vivo: 8.57 ± 0.57 h
[10]
  total protein half-life in vivo: 5.76 ± 0.32 h
[7]
  total protein half-life in vivo: 11.9 ± 0.51 h

## MKMANHPRPGDIIQESLDELNVSLREFARAMEIAPSTASRLLTGKAALTPEMAIKLSVVIGSSPQMWLNLQNAWSLAEAEKTVDVSRLRRLVTQ
[1]
  total protein half-life in vivo: 3.73 ± 0.35 h
[9]
  total protein half-life in vivo: 1.217 ± 0.0059 h
[2]
  total protein half-life in vivo: 1.58 h
[3]
  total protein half-life in vivo: 2.32 h
[4]
  total protein half-life in vivo: 2.59 h
[7]
  total protein half-life in vivo: 3.05 ± 1.1 h

## MKMLRDPLFWLIALFVALIFWLPYSQPLFAALFPQLPRPVYQQESFAALALAHFWLVGISSLFAVIIGTGAGIAVTRPWGAEFRPLVETIAAVGQTFPPVAVLAIAVPVIGFGLQPAIIALILYGVLPVLQATLAGLGAIDASVTEVAKGMGMSRGQRVRKVELPLAAPVILAGVRTSVIINIGTATIASTVGASTLGTPIIIGLSGFNTAYVIQGALLVALAAIIADRLFERLVQALSQHAK
[6]
  total protein half-life in vivo: 5.89 h

## MKNDVISPEFDENGRPLRRIRSFVRRQGRLTKGQEHALENYWPVMGVEFSEDMLDFPALFGREAPVTLEIGFGMGASLVAMAKDRPEQDFLGIEVHSPGVGACLASAHEEGLSNLRVMCHDAVEVLHKMIPDNSLRMVQLFFPDPWHKARHNKRRIVQVPFAELVKSKLQLGGVFHMATDWEPYAEHMLEVMSSIDGYKNLSESNDYVPRPASRPVTKFEQRGHRLGHGVWDLMFERVK [P0A8I5]
[1]
  total protein half-life in vivo: 5.11 ± 0.029 h
[8]
  total protein half-life in vivo: 4.82 h
[12]
  total protein half-life in vivo: 7.09 h
[9]
  total protein half-life in vivo: 4.18 ± 0.61 h
[2]
  total protein half-life in vivo: 2.73 h
[3]
  total protein half-life in vivo: 4.88 ± 0.4 h
[4]
  total protein half-life in vivo: 8.12 ± 0.26 h
[5]
  total protein half-life in vivo: 4.58 ± 0.17 h
[6]
  total protein half-life in vivo: 7.49 ± 1.2 h
[10]
  total protein half-life in vivo: 3.77 h
[7]
  total protein half-life in vivo: 8.11 ± 0.11 h
